Legend:
Test in all cases: cell-based or functional assay
[1] = biological target: Modified IL-18 polypeptide of SEQ ID NO: 8 (E06K, S55A) (human, UniProt Q14116 37-193)
[2] = biological target: Modified IL-18 polypeptide of SEQ ID NO: 19 (T63A) (human, UniProt Q14116 37-193)
[3] = biological target: T1, Modified IL-18 polypeptide of SEQ ID NO: 3 (Y01G, F02A, E06K, M51G, K53A, D54A, S55A, T63A) (human, UniProt Q14116 37-193)
T1 chain: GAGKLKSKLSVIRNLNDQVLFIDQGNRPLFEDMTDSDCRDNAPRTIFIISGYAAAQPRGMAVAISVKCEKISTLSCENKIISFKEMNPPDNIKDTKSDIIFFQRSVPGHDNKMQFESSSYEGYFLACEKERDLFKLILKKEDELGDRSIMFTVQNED

[4] = biological target: T2, Modified IL-18 polypeptide of SEQ ID NO: 18 (E06K, K53A, T63A) (human, UniProt Q14116 37-193)
T2 chain: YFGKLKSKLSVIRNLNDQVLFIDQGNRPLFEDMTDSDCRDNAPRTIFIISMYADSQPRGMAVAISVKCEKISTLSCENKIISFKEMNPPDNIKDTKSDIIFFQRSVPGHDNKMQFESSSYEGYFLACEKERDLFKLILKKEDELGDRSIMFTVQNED

[5] = biological target: T3, Modified IL-18 polypeptide of SEQ ID NO: 14 (E06K, K53A, S55A, M51G) (human, UniProt Q14116 37-193)
T3 chain: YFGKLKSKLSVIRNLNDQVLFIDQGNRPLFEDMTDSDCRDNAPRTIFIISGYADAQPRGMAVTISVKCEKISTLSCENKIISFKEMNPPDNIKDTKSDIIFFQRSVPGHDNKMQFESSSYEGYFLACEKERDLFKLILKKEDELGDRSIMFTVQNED

[6] = biological target: T4, Modified IL-18 polypeptide of SEQ ID NO: 11 (E06K, K53A, S55A, Y01G) (human, UniProt Q14116 38-193)
T4 chain: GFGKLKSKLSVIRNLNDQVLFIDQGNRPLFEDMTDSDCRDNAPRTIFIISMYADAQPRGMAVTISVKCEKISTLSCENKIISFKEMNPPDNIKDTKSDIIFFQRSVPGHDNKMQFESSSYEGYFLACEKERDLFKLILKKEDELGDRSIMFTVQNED

[7] = biological target: Modified IL-18 polypeptide of SEQ ID NO: 21 (K53A, T63A) (human, UniProt Q14116 37-193)
[8] = biological target: T5, Modified IL-18 polypeptide of SEQ ID NO: 22 (E06K, K53A, C38S, C68S, C76S, C127S, K70C) (human, UniProt Q14116 37-193)
T5 chain: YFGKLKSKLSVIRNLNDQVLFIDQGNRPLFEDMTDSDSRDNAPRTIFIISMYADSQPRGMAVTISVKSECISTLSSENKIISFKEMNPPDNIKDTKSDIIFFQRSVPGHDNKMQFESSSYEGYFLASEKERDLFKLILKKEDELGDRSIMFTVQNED

[9] = biological target: T6, Modified IL-18 polypeptide of SEQ ID NO: 2 (E06K, K53A, S55A) (human, UniProt Q14116 37-193)
T6 chain: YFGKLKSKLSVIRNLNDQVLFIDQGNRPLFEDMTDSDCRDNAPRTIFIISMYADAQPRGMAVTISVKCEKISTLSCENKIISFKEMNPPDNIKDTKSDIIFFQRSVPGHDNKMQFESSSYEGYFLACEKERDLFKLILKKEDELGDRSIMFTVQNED

[10] = biological target: Modified IL-18 polypeptide of SEQ ID NO: 4 (K53A) (human, UniProt Q14116 37-193)
[11] = biological target: T7, Modified IL-18 polypeptide of SEQ ID NO: 23 (K53A, T63A, C38S, C68S, C76S, C127S, K70C) (human, UniProt Q14116 37-193)
T7 chain: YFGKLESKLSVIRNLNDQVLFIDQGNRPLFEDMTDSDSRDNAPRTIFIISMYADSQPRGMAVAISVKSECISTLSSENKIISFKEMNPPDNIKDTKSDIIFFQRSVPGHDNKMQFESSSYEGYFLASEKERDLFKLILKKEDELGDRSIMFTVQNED

[12] = biological target: Modified IL-18 polypeptide of SEQ ID NO: 20 (E06K, T63A) (human, UniProt Q14116 37-193)
[13] = biological target: Modified IL-18 polypeptide of SEQ ID NO: 5 (S55A) (human, UniProt Q14116 37-193)
[14] = biological target: Modified IL-18 polypeptide of SEQ ID NO: 7 (E06K, K53A) (human, UniProt Q14116 37-193)
[15] = biological target: T8, Modified IL-18 polypeptide of SEQ ID NO: 10 (E06K, K53A, S55A, T63A) (human, UniProt Q14116 37-193)
T8 chain: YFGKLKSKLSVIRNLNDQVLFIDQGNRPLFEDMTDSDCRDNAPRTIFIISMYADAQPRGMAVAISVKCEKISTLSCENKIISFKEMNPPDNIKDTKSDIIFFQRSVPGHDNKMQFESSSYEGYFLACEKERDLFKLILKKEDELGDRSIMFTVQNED

[16] = biological target: T9, IL-18 polypeptide of SEQ ID NO: 1 (native sequence, human IL-18 37-193) (human, UniProt Q14116 37-193)
T9 sequence: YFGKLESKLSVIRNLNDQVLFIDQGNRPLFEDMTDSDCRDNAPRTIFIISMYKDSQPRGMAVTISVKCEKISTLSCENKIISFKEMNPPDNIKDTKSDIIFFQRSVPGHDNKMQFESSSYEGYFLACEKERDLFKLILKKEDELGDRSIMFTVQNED

B1: Fc fused human IL-18BP isoform a (IL-18BPa) (Fc fusion, UniProt O95998 31-194, looked up, not shown: a dimerising Fc or GST)
chain: TPVSQTTTAATASVRSTKDPCPSQPPVFPAAKQCPALEVTWPEVEVPLNGTLSLSCVACSRFPNFSILYWLGNGSFIEHLPGRLWEGSTSRERGSTGTQLCKALVLEQLTPALHSTNFSCVLVDPEQVVQRHVVLAQLWAGLRATLPPTQEALPSSHSSPQQQG
[1]
  IC50 (nM), IL-18BPa inhibition of IFNγ release by NK-92 cells (1 nM IL-18 analyte): 15 nM
[2]
  IC50 (nM), IL-18BPa inhibition of IFNγ release by NK-92 cells (1 nM IL-18 analyte): 0.239 nM
[3]
  IC50 (nM), IL-18BPa inhibition of IFNγ release by NK-92 cells (1 nM IL-18 analyte): > 55 nM
[4]
  IC50 (nM), IL-18BPa inhibition of IFNγ release by NK-92 cells (1 nM IL-18 analyte): > 1000 nM
[5]
  IC50 (nM), IL-18BPa inhibition of IFNγ release by NK-92 cells (1 nM IL-18 analyte): 0.189 nM
[6]
  IC50 (nM), IL-18BPa inhibition of IFNγ release by NK-92 cells (1 nM IL-18 analyte): 27.8 nM
[7]
  IC50 (nM), IL-18BPa inhibition of IFNγ release by NK-92 cells (1 nM IL-18 analyte): 18.2 nM
[8]
  IC50 (nM), IL-18BPa inhibition of IFNγ release by NK-92 cells (1 nM IL-18 analyte): 23.5 nM
[9]
  IC50 (nM), IL-18BPa inhibition of IFNγ release by NK-92 cells (1 nM IL-18 analyte): 229 nM
[10]
  IC50 (nM), IL-18BPa inhibition of IFNγ release by NK-92 cells (1 nM IL-18 analyte): 27.3 nM
[11]
  IC50 (nM), IL-18BPa inhibition of IFNγ release by NK-92 cells (1 nM IL-18 analyte): > 1000 nM
[12]
  IC50 (nM), IL-18BPa inhibition of IFNγ release by NK-92 cells (1 nM IL-18 analyte): 47.1 nM
[13]
  IC50 (nM), IL-18BPa inhibition of IFNγ release by NK-92 cells (1 nM IL-18 analyte): 4.46 nM
[14]
  IC50 (nM), IL-18BPa inhibition of IFNγ release by NK-92 cells (1 nM IL-18 analyte): > 703 nM
[15]
  IC50 (nM), IL-18BPa inhibition of IFNγ release by NK-92 cells (1 nM IL-18 analyte): 1060 nM
[16]
  IC50 (nM), IL-18BPa inhibition of IFNγ release by NK-92 cells (1 nM IL-18 analyte): 1.47 nM
